In the DeepSol protein solubility set:

Test: soluble on expression in E. coli; label from the status in PepcDB or PDB records

| Sequence | soluble on expression in E. coli |
| --- | --- |
| MTENIHKHRILILDFGSQYTQLVARRVRELGVYCELWAWDVTEAQIRDFNPSGIILSGGPESTTEENSPRAPQYVFEAGVPVFGVCYGMQTMAMQLGGHVEASNEREFGYAQVEVVNDSALVRGIEDALTADGKPLLDVWMSHGDKVTAIPSDFITVASTESCPFAIMANEEKRFYGVQFHPEVTHTRQGMRMLERFVRDICQCEALWTPAKIIDDAVARIREQVGDDKVILGLSGGVDSSVTAMLLHRAIGKNLTCVFVDNGLLRLNEAEQVLDMFGDHFGLNIVHVPAEDRFLSALAGENDPEAKRKIIGRVFVEVFDEEALKLEDVKWLAQGTIYPDVIESAASATGKAHVIKSHHNVGGLPKEMKMGLVEPLKELFKDEVRKIGLELGLPYDMLYRHPFPGPGLGVRVLGEVKKEYCDLLRRADAIFIEELRKADLYDKVSQAFTVFLPVRSVGVMGDGRKYDWVVSLRAVETIDFMTAHWAHLPYDFLGRVSNRIINEVNGISRVVYDISGKPPATIEWE | soluble |
| MEDLQLQVTMRDFLDALTEVEPSATREFAMEIPTATWEDIGGLEKIKERLQAMVEWPLRYPELFQQFGLQTPKGILLSGPPGTGKTLVAKALARESGINFIPVNSSLLFSHWWGEAEKTLHEVFRKARQASPCLLFFDELDALVPARKAGEGSSIGSRLVSQFLMELDGLEELREVIVLGATNRIDMIDPAVLRPGRFDQILEFPYPDQAARKEIFQIYLRNRPVDPGINLDSLAGAAEGLVGSEIEALCKRAALLAVSEVINHKGAGAYIKTCHLEQALAEIQAEKQQARTGAENHTLRPVWNNVVPGAISQVGRLEHHHHHH | soluble |
| MSLGTLASLHLNSGDAHHKQRTVTILEFSSSLKLVYKPRSLKVDGVFNGLLAFLNDRTGEVIKDQYCPKVLQRDGYGYVEFVTHQSCQSLEEVSDFYERLGSLMSLSYVLNSSDFHFENIIAHGPYPVLIDLETIIHNTADSSEETSTAMDRAFRMLNDSVLSTGMLPSSIYYRDQPNMKGLNVGGVSKSEGQKTPFKVNQIANRNTDEMRIEKDHVTLSSQKNLPIFQSAAMESVHFLDQIQKGFTSMYQWIEKNKQEFKEQVRKFEGVPVRAVLRSTTRYTELLKSSYHPDLLRSALDREVLLNRLTVDSVMTPYLKEIIPLEVEDLLNGDVPYFYTLPEERALYQEASAINSTFFTTSIFHKIDQKIDKLGIEDHTQQMKILHMSMLASNANHYADVADLEGHHHHHH | not soluble |
| MGSDKIHHHHHHMNIIICDDRIDDRKNLSDLLSDYGEKKNYEFTITEYDSGEQLCEEQSALEACQLLFLDINMQGMDGLKTAMRIKEKYPKLPVVLVTAYMNYALDGYKVKASRFLLKDNLADTIEECMDDLIAEINKNRRILEFRFVEGTIKLYADDIIYIETELHKNVFYTEKGTFQIYKKLDELENEFKDMGFVRAHLSFLVNMRYITKISGYVMTLTTGKKIPVPKARYAQVKREYMLYKGEE | not soluble |
| MSLKIIILGAGQVGGTLAENLVGENNDITVVDKNADRLRDLQDKYDLRVVNGHASHPDVLREAGAQDADMLVAVTNTDETNMAACQVAFTLFNTPNRIARIRSPQYLAEKEALFQSGAVPVDHLIAPEELVTSYIERLIQYPGALQVVSFAEEKVSLVAVKAYYGGPLVGNALSALRDHMPHIDTRVAAIFRQGRPIRPQGTTIIEADDEVFFVAASNHIRSVMSELQRLEKPYRRIMIVGGGNIGASLAKRLEQTYSVKLIEHNYQRAEQLSEQLENTIVFCGDAADQELLSEENIDQVDVFIALTNEDETNIMSAMLAKRMGAKKAMVLIQRSGYVDLVQGGVIDVAISPQQATISALLTHVRRADIVNVSSLRRGAAEAIEAIAHGDESTSKVVGRAVGDIKLPPGTTIGAIVRGEEVLIAHDRTVIEQDDHVVMFLVDKKYVPDVETLFQPSPFFLEGHHHHHH | soluble |
| MGTEGGAMIRTVALVGHAGSGKTTLTEALLYKTGAKERRGRVEEGTTTTDYTPEAKLHRTTVRTGVAPLLFRGHRVFLLDAPGYGDFVGEIRGALEAADAALVAVSAEAGVQVGTERAWTVAERLGLPRMVVVTKLDKGGDYYALLEDLRSTLGPILPIDLPLYEGGKWVGLIDVFHGKAYRYENGEEREAEVPPEERERVQRFRQEVLEAIVETDEGLLEKYLEGEEVTGEALEKAFHEAVRRGLLYPVALASGEREIGVLPLLELILEALPSPTERFGDGPPLAKVFKVQVDPFMGQVAYLRLYRGRLKPGDSLQSEAGQVRLPHLYVPMGKDLLEVEEAEAGFVLGVPKAEGLHRGMVLWQGEKPESEEVPFARLPDPNVPVALHPKGRTDEARLGEALRKLLEEDPSLKLERQEETGELLLWGHGELHLATAKERLQDYGVEVEFSVPKVPYRETIKKVAEGQGKYKKQTGGHGQYGDVWLRLEPASEYGFEWRITGGVIPSKYQEAIEEGIKEAAKKGVLAGFPVMGFKAIVYNGSYHEVDSSDLAFQIAASLAFKKVMAEAHPVLLEPIYRLKVLAPQERVGDVLSDLQARRGRILGMEQEGALSVVHAEVPLAEVLEYYKALPGLTGGAGAYTLEFSHYAEVPPHLAQRIVQERAQEG | soluble |
| MVGRRDGPFKPPGGLLRAFLVRVDAGHLRTVSYSTVLASTSAHSSALPPRRSPPMNAPAKSLLDIDAFPLVQVREMPRELADVERWLEEVEALLAVERDFALVYPPLPQETAEGDQQARKRLVLWLKENRQRFVEHCRGILLSANGQPDNLADLQQLAPVLQAVYGPPVSVAPDLASARGMAKALLSGPATGMNW | not soluble |
| MGSDKIHHHHHHMSSIVLAVGNGKTLFGGSGVAPDADLVRFVDPESPIINAFDLCALRGDGIFEATTVWRGFPVSLENHLKRLANSARLVDMPEPNIPALTRAVQLVIDQYDDPEPGPMLRIIVSRGLDPDTGVGKAADRTPTVYIFLDAKGTLHSLEPITMASMTRGYPSDITARAPWLLNGAKTLSYAFNCAVHRECARRGVGDAILFTEDGYTMECPNSSIVARYGDTFVTPDPRIGILNGTSQREMFAWALEEGKKAEYRKLPIAELREADSLYMTHGGWSIPISAIDGRALAVDAAEIQAINDAIHSGRTHEDALKIGPTGDYE | not soluble |
| MPLGLFSSGKAQVLCDEKIPGGKKKEPKQLSENKCKGVTLKLDHTRVTIEKQIAEGGFAIVYVASDRKNNKFALKRQFTKDNEKQLEACCREHSFLKQCIGHKNIVEFVDSYTNCLGNGIWECMLLTEYHQKNVLQLMNERISQNQYLTNDEILSIFTDLCEAVSFIHNRPQPIIHRDLKVENVLISSHKPPHYVLCDFGSATTQILSVEKYGVEYVKSEVERNTTMCYRSPEMIDFYSGLEIGLKSDIWALGVLLYRLCFFCVPFEESPLAIQSVNYQFPSVPNIPDEIKVLIYMLLDIDVNRRPSIYQTSVLAFEANHRKPLSEEIQNKKCTDAVPSLKSCIQLMRDGSNPRNKRDSSPRNPEAPPIQSSSKMASLSQQVPSISNISMPSGSGTVETSVAPRLRPKATTVVPNVPSISPVPPVGLPHLRLPSKGSTDETDGSQVRKVPIDFHHRQSFSGEEQLKPAAEADSAGPLSCPLIKPTDLGFTDLDKPALPRDRAQTDGKRRLPHESDIIFQQQHRRNVSDTSQISRSAFKPYSSQQTTSKTSSQVVRSVEDMSQRQNGGSGEWNPFLVAPFSNNSISRKDGQESAFMMDDSHFGMVFDEIRRKEIPAELDSETSSIDSRDPFGAAPFDQLTVSTSSSAQPVSLPPGSVHLHTSIAPSPLLRHVLTKAPPPVPRRTTSRGFQV | not soluble |
| IYGYVEKATLIDQNLTLSAKLDTGAKSASLHAVNITEIEKKGIPYLRFTVPTKTGDYSFEGEYVGKVKIKVRSSETNPGLLRTTPIKRPVVLLNIKLGDKVRTIKVNLTNRKRFLYPLLLGRDAIIDFNGAVDPALTFTTKSK | soluble |
| MAHHHHHHMLNRSRLRRVWLGGTAANTSLGRDVMPSTGKYINIVSPTDVAANISAGAMPPEANVAAALPVPRIQYSKWNRALRSDVYDELLKLPLRYKLHDFAKLCPPQRCQEEPEAVGVVGRDSAVGYLPPLGPADPLDTIPFFVHRSSNGVLPGKVFSMHPRNLMPAFYLRIQQVEGDMFRFEEELLKIFPTKKIFVRSHSIYVYNVALDGRMVLHHWLLGLGF | not soluble |
| MGSDKIHHHHHHEQDNSVSEKQVDVVYNDPRDPFEGFNRAMWDLNYNVLDRYIYRPVAHTYKDYVPSPVKSGLHNFVRNLEEPNALVNNTLQGKFGWAANAGGRFVVNSTIGLLGVVDVADMMGMHRKQDDFNEVLGYYGVPNGPYFMAPFFGPYVTRELASDWVDGLYFPLSELTMWQSVVKWGIKSLHVRTEAIDQERLLDNALDPYTFVKDAYLQHMDYKVYDGNVPSNQEDDELLDEYMQELE | not soluble |
